Reference: article PMC11262690

Target: Nematocida displodere mechanosensitive ion channel of small conductance 2, MscS2Δ2–29 (His14-SUMO tag cleaved) (Nematocida displodere)
Experiment: cryo-EM structure; single-particle, 0.33 mg/mL in DDM, 200 kV Glacios; consensus refinement without symmetry 8.3 Å, focused refinement of two channels 7.7 Å

## Nematocida displodere mechanosensitive ion channel of small conductance 2, MscS2Δ2–29 (His14-SUMO tag cleaved) (domain or fragment)
  heptameric channels in the superstructure: 6
  stoichiometry N: 7
